Experiment [1] deals with HLA-A*24:03. Put plainly: IEDB peptide-MHC binding, purified MHC/direct/fluorescence; filed as Kd, often an IC50 or EC50 that approximates it; ≥ and ≤ were set here for values at or beyond the usual limits of such assays.
A further experiment deals with HLA-C*06:02. Described as above. As to conditions: source organism: Cryptosporidium parvum.
Another experiment concerns the target HLA-A*24:02. Description: IEDB peptide-MHC binding, purified MHC/competitive/fluorescence; filed as Kd, often an IC50 or EC50 that approximates it; ≥ and ≤ were set here for values at or beyond the usual limits of such assays.
Another experiment has as its target HLA-C*14:02. Description: IEDB peptide-MHC binding, purified MHC/direct/fluorescence; filed as Kd, often an IC50 or EC50 that approximates it; ≥ and ≤ were set here for values at or beyond the usual limits of such assays.
Another experiment concerns the target HLA-C*15:02. The experiment is described as above.
In another experiment the target is HLA-C*07:02. The description is as above. As to conditions: source organism: Cryptosporidium parvum Iowa II.
Experiment [2] deals with HLA-A*24:03. Description: IEDB peptide-MHC binding, purified MHC/competitive/fluorescence; filed as Kd, often an IC50 or EC50 that approximates it; ≥ and ≤ were set here for values at or beyond the usual limits of such assays. Particulars: source organism: Escherichia coli str. K-12 substr. MG1655.
The mark [3] stands for this setting: source organism: Cryptosporidium parvum.
[4] abbreviates: source organism: Staphylococcus aureus subsp. aureus N315.

Bounds are passed on as bounds.

For orientation: Kd means the free concentration of one partner at which half of the binding sites on the other are occupied at equilibrium, for simple one-to-one binding. The low end stands for tighter binding, the high end for weaker binding.

As to RYMYIYLFI, the Kd in the experiment with HLA-A*24:03 [1] (setting [3]) is 4 nM; with HLA-C*06:02, no less than 20000 nM; in the experiment with HLA-A*24:02 (setting [3]), 3.6 nM.
For the sequence RTQAVIYAF, the figures for the Kd with HLA-A*24:03 [1] (source organism: Bacillus anthracis), in the experiment with HLA-C*14:02 (setting [4]) and with HLA-C*15:02 (setting [4]) were 1.3 nM, 133 nM and 1400 nM, respectively.
Regarding NYKWWWFSF, the Kd with HLA-C*07:02 is 181 nM; with HLA-A*24:02 (source organism: Cryptosporidium parvum Iowa II) it was 2.3 nM.
In the experiment with HLA-A*24:02 (source organism: Influenza A virus (A/Swine/Indiana/9K035/99 (H1N2))), RYSKKFKPEI showed a Kd of 33 nM.
On to YTASVVAAY, for which the Kd with HLA-C*14:02 (source organism: Homo sapiens) was 98 nM; in the experiment with HLA-C*15:02 (source organism: Homo sapiens), no less than 20000 nM.
Turning to KWMMAMRYPI, the Kd in the experiment with HLA-A*24:02 (source organism: Influenza A virus (A/chicken/Fujian/25/00(H9N2))) stood at 3.2 nM.
For AYPELACAV, the Kd in the experiment with HLA-C*14:02 (source organism: Escherichia coli str. K-12 substr. MG1655) was no more than 1 nM; in the experiment with HLA-A*24:03 [2], 406 nM.
